Laboratory results: US20260258472A1

Legend:
[1] = target: Human SOD1 in sporadic ALS (sALS) spinal cord homogenate (human) (UniProt P00441); assay: cell-based or functional assay
[2] = target: Human SOD1 in sporadic ALS (sALS) spinal cord homogenate (human) (UniProt P00441); assay: immunoprecipitation with antibody-linked magnetic beads; immunoblot of the flow-through of sALS patient 4 spinal cord homogenate

Sequence of UniProt P00441 (P00441 2-154 limits assumed): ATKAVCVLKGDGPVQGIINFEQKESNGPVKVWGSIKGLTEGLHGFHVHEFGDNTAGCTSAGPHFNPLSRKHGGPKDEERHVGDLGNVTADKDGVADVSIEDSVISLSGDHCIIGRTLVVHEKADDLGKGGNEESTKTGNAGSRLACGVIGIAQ

Isotype control antibody mIgG2b (ThermoFisher #MA110427)
50% ThT (RFU), SOD1 RT-QuIC after immunodepletion [1]: 32100 RFU
Lag phase (hours), SOD1 RT-QuIC after immunodepletion [1]: 70.2 h
percent SOD1 remaining in flow-through compared to input [2]: 75%

Anti-human SOD1 antibody C4F6 (misfolded SOD1; MediMabs #MM-0070-2-P)
50% ThT (RFU), SOD1 RT-QuIC after immunodepletion [1]: 21900 RFU
Lag phase (hours), SOD1 RT-QuIC after immunodepletion [1]: 62.4 h
percent SOD1 remaining in flow-through compared to input [2]: 21%

Isotype control antibody mIgG2a (ThermoFisher #MA110418)
50% ThT (RFU), SOD1 RT-QuIC after immunodepletion [1]: 27600 RFU
Lag phase (hours), SOD1 RT-QuIC after immunodepletion [1]: 57.6 h
percent SOD1 remaining in flow-through compared to input [2]: 28%

Mouse-anti-SOD1 antibody, clone O98B10 (pan-SOD1; BioLegend #850702)
50% ThT (RFU), SOD1 RT-QuIC after immunodepletion [1]: 27300 RFU
Lag phase (hours), SOD1 RT-QuIC after immunodepletion [1]: 62.7 h
percent SOD1 remaining in flow-through compared to input [2]: 23%
